Assays:
Assay type in all cases: binding
[1] = target: T1, FGF receptor subtype R3c (FGFR-Fc) (Homo sapiens, UniProt P22607); test: Co-precipitation of soluble betaKlotho with FGFR-Fc (protein A beads), R3c
T1 construct: adding an immunoglobulin Fc domain to the extracellular domain of an FGF receptor; purchased R&D Systems
T1 sequence (P22607 23-375 limits assumed): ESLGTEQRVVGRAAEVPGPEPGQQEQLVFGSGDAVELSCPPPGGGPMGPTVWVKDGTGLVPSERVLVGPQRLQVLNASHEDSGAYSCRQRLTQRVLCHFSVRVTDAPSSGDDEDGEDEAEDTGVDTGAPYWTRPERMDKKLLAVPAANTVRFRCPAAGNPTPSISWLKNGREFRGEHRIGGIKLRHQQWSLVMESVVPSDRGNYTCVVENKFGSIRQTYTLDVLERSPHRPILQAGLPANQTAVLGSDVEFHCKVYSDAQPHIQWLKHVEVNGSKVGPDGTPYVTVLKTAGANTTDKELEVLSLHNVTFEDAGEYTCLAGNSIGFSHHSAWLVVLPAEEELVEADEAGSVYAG
Procedure: (§1) Moreover, the soluble betaKlotho protein and a fusion protein obtained by adding an immunoglobulin Fc domain to the extracellular domain of an FGF receptor (FGFR-Fc; manufactured by R&D Systems) were incubated, and FGFR-Fc was then precipitated using protein A beads. Whether or not betaKlotho bound to FGFR-Fc and was co-precipitated therewith was analyzed.

[2] = target: T2, FGF receptor subtype R2c (FGFR-Fc) (Homo sapiens, UniProt P21802); test: Co-precipitation of soluble betaKlotho with FGFR-Fc (protein A beads), R2c
T2 construct: adding an immunoglobulin Fc domain to the extracellular domain of an FGF receptor; purchased R&D Systems
Procedure: as §1

[3] = target: T3, FGF receptor subtype R4 (FGFR-Fc) (Homo sapiens, UniProt P22455); test: Co-precipitation of soluble betaKlotho with FGFR-Fc (protein A beads), R4
T3 construct: adding an immunoglobulin Fc domain to the extracellular domain of an FGF receptor; purchased R&D Systems
T3 sequence (P22455 22-369 limits assumed): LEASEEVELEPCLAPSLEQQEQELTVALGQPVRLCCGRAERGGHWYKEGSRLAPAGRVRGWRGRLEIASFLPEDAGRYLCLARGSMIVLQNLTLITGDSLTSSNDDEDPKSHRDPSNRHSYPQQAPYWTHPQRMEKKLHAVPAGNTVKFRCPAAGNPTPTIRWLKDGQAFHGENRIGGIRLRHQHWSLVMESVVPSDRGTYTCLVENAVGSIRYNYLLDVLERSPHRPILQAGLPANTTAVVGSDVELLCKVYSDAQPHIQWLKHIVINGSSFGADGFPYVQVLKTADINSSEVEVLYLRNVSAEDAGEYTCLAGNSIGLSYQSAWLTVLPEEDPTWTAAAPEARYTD
Procedure: as §1

[4] = target: T4, FGF receptor subtype R1c (FGFR-Fc) (Homo sapiens, UniProt P11362); test: Co-precipitation of soluble betaKlotho with FGFR-Fc (protein A beads), R1c
T4 construct: adding an immunoglobulin Fc domain to the extracellular domain of an FGF receptor; purchased R&D Systems
T4 sequence (P11362 22-376 limits assumed): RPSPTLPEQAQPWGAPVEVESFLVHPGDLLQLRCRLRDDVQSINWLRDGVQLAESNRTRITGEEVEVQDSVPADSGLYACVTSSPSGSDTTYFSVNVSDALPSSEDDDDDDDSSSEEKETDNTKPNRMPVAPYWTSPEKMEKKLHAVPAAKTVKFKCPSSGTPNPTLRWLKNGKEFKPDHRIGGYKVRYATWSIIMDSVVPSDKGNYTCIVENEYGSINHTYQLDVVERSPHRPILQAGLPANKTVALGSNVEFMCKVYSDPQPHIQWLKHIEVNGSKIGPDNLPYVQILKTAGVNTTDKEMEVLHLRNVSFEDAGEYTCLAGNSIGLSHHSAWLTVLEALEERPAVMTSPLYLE
Procedure: as §1

Measured: co-precipitation (binding) with FGFR-Fc

T2 sequence (P21802 22-377 limits assumed): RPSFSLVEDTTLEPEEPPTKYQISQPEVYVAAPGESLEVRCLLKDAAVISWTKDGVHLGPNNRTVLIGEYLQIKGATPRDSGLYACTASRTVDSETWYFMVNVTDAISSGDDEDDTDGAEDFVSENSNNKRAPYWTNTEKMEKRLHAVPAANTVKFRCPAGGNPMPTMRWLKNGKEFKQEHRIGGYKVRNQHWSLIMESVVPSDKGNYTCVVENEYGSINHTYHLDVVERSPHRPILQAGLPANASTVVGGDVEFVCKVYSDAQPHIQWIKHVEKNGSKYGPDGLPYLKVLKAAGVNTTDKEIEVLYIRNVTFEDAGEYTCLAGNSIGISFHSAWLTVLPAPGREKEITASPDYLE

betaKlotho: soluble protein: extracellular domain of betaKlotho with V5 tag and His tag at the C-terminus
binds to all of FGF receptor subtypes: all assays above
